Laboratory results taken from patent US20180282402A1 (ATYR PHARMA, published 2018).

T1: Human HARS (human, UniProt P12081 1-509, limits assumed)
T1 construct: also called human HRS; human histidyl-tRNA synthetase
T1 sequence: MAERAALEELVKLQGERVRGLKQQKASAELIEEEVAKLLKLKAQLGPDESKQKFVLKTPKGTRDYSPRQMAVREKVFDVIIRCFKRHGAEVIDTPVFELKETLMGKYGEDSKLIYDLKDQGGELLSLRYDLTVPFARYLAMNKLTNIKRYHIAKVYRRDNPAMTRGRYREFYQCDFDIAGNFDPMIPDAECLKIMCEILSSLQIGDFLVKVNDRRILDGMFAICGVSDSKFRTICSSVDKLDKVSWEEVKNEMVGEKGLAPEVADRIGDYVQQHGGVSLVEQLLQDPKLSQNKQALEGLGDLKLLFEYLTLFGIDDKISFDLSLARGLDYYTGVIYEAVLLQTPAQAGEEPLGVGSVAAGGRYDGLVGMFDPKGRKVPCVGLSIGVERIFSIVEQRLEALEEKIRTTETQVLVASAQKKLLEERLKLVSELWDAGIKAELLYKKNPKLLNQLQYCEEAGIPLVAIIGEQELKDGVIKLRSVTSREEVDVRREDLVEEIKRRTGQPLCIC

T2: Mouse HARS (mouse, UniProt Q61035 1-509, limits assumed)
T2 construct: also called mouse HRS
T2 sequence: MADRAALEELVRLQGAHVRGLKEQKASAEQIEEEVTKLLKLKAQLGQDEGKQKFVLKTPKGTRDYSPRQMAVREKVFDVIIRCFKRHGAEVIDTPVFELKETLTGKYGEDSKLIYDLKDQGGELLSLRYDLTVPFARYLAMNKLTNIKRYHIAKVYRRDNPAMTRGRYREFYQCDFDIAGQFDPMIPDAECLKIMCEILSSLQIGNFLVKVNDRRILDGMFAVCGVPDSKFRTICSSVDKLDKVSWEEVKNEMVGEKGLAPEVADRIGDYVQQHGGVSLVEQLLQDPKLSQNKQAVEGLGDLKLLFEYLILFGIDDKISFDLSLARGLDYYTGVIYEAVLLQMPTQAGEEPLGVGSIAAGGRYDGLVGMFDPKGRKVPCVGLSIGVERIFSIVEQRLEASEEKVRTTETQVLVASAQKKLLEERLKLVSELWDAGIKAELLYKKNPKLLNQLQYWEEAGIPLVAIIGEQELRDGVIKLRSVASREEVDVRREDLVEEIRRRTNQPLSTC

T3: Fc-HRS(2-60) (human, UniProt P12081 2-60)
T3 construct: Fc at the N-terminus, HRS residues 2-60 (WHEP domain) at the C-terminus; in the imaging assay pre-complexed with anti-Fc-PE; also called HRS-Fc fusion protein construct; ATYR1923; not shown: human IgG Fc region
T3 sequence: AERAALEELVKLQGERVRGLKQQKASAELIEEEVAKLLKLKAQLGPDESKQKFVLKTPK


How the values were obtained:
Human HARS = target: T1, Human HARS; assay: SPR (ProteOn); HRS protein immobilized, antibody as analyte
Mouse HARS = target: T2, Mouse HARS; assay: as above
Fc-HRS(2-60) = target: T3, Fc-HRS(2-60); assay: flow cytometry blocking assay: 43.75 nM biotinylated Fc-HRS(2-60) complexed with 87.5 nM streptavidin-PE, added with titrated antibody to Expi293 cells stably expressing NRP2, the blocked partner [panel A]
[1] = target: T4, NRP2-Fc (R&D Systems #2215-N2) (human, UniProt O60462 23-864, limits assumed); assay: SPR; column Binding to NRP2 observed by SPR
T4 construct: Bought reagent used as NRP2 in the SPR experiments; also called human NRP2; Neuropilin 2; not shown: Fc
T4 sequence (O60462 23-864 limits assumed): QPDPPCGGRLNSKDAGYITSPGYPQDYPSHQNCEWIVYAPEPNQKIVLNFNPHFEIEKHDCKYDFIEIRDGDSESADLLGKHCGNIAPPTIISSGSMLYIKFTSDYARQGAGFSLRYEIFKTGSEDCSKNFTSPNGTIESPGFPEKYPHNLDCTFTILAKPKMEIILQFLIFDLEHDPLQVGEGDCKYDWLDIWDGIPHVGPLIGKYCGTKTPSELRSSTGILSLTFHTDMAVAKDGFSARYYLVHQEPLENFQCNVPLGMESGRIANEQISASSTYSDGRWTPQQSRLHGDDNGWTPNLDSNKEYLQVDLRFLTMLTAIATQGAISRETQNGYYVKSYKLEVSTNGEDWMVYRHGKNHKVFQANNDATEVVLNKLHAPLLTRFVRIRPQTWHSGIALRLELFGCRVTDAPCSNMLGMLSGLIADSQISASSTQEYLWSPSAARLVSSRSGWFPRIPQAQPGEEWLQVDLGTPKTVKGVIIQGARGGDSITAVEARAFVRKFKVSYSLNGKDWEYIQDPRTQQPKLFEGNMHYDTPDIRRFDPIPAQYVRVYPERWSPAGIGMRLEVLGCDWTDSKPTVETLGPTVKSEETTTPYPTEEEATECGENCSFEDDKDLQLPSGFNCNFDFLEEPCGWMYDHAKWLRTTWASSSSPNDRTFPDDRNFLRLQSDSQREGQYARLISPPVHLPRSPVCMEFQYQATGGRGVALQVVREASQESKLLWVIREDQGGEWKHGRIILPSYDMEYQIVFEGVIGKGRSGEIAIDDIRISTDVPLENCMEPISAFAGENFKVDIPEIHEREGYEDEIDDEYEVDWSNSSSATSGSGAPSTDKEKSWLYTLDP

Binder	Kd (Human HARS)	Kd (Mouse HARS)	IC50 (read off the curve) (Fc-HRS(2-60))	binding result [1]
AB04-425 (antibody, V domains shown, Human; IgG1m(zf) kappa) VH: QVQLVESGGGLVKPGGSLRLSCAASGFTFSDYYMTWIRQAPGKGLEWVSYISGSFRYTNYADKVKGRFTISRDNAKNSLYLQMNSLRDEDTAVYFCARYVYQVVAIGDLWGQGTLVTVSS VL: DIQMTQSPSSVSASVGDRVTITCRASQGISSWLAWYQQKPGRAPKLLIFAASSLQSGVPSRFSGSGSGTHFTLTISSLQPEDFATYYCQQAESFPYTFGQGTKLEIK	0.01 nM	0.127 nM		
AB13-112 (IgG1m(za) kappa) (antibody, V domains shown, Human) VH: QVQLVESGGGLVKPGGSLRLSCAASGFTFSDYYMSWIRQAPGKGLEWVSYISDKSRYTKYTDKVRGRFTISRDNAKNSLYLQMNSLRAEDTAVYYCARYLYQVIAIADAWGQGTLVTVSS VL: DIQMTQSPSSVSASVGDRVTITCRASQGISSWLAWFQQKPGKAPKLLIFVASNLESGVPSRFSGSGSGTDFTLTISSLQPEDFATYYCQQAESFPYTFGQGTKLEIK	< 0.001 nM	< 0.001 nM		
AB04-439 (antibody, V domains shown, Human; IgG1m(zf) kappa) VH: QVQLVESGGGLVKPGGSLRLSCAASGFTFSDYYMTWIRQAPGKGLEWVSYISGSFRYTNYADSVKGRFTISRDNAKNSLYLQMNSLRDEDTAVYFCARYVYQVVAIGDLWGQGTLVTVSS VL: DIQMTQSPSSVSASVGDRVTITCRASQGISSWLAWYQQKPGRAPKLLIFAASSLQSGVPSRFSGSGSGTHFTLTISSLQPEDFATYYCQQAESFPYTFGQGTKLEIK	0.048 nM	0.13 nM		
AB13-112 (IgG4 kappa) (antibody, V domains shown, Human) VH: QVQLVESGGGLVKPGGSLRLSCAASGFTFSDYYMSWIRQAPGKGLEWVSYISDKSRYTKYTDKVRGRFTISRDNAKNSLYLQMNSLRAEDTAVYYCARYLYQVIAIADAWGQGTLVTVSS VL: DIQMTQSPSSVSASVGDRVTITCRASQGISSWLAWFQQKPGKAPKLLIFVASNLESGVPSRFSGSGSGTDFTLTISSLQPEDFATYYCQQAESFPYTFGQGTKLEIK	< 0.001 nM	0.0025 nM		
KL31-467 (antibody, V domains shown, Humanized; IgG1m(zf) kappa) VH: QVQLVQSGAEVKKPGASVKVSCKASGYTFTDYCIGWIRQAPGQGLEWMGDICPGDTYTNDNEKFKDRATMTADTSTSTAYMELSSLRSEDTAVYYCARGEEQLGLRNAMDYWGQGTLVTVSS VL: DIVMTQSPDSLAVSLGERATINCQSQSVSTSTYNYMHWYQQKPGQPPKLLIKYASNLESGVPDRFSGSGSGTDFTLTISSLQAEDVATYYCQHSWEIPWTFGGGTKVEIK	0.21 nM	0.96 nM	~20 nM	
KL31-513 (antibody, IgG4, V domains shown, Humanized; IgG4-2 kappa) VH: QVQLVQSGAEVKKPGASVKVSCKASGYTFTDYCIGWIRQAPGQGLEWMGDICPGDTYTNDNEKFKDRATMTADTSTSTAYMELSSLRSEDTAVYYCARGEEQLGLRNAMDYWGQGTLVTVSS VL: EIVLTQSPATLSLSPGERATLSCQSQSVSTSTYNYMHWYQQKPGQAPRLLIKYASNLESGIPDRFSGSGSGTDFTLTISRLEPEDFATYYCGHSYEIPWTFGGGTKVEIK	0.116 nM	1.25 nM		
KL31-240 (antibody, IgG4, V domains shown, Humanized; IgG4 kappa) VH: QVQLVQSGAEVKKPGASVKVSCKASGYTFTDYCIGWIRQAPGQGLEWMGDICPGDTYTNDNEKFKDRATMTADTSTSTAYMELSSLRSEDTAVYYCARGEEQLGLRNAMDYWGQGTLVTVSS VL: EIVLTQSPATLSLSPGERATLSCQSQSVSTSTYNYMHWYQQKPGQAPRLLIKYASNLESGIPDRFSGSGSGTDFTLTISRLEPEDFATYYCGHSYEIPWTFGGGTKVEIK	0.104 nM	0.942 nM		
KL31-241 (antibody, V domains shown, Humanized; IgG1m(zf) kappa) VH: QVQLVQSGAEVKKPGASVKVSCKASGYTFTDYCIGWIRQAPGQGLEWMGDICPGDAYTNDNEKFKDRATMTADTSTSTAYMELSSLRSEDTAVYYCARGEEQLGLRNAMDYWGQGTSVTVSS VL: DIVMTQSPDSLAVSLGERATINCQSQSVSTSTYNYMHWYQQKPGQPPKLLIKYASNLESGVPDRFSGSGSGTDFTLTISSLQAEDVATYYCQHSWEIPWTFGGGTKLEIK	1.4 nM	5.1 nM		

The remaining lines, values ahead:

Kd (Human HARS)	Kd (Mouse HARS)	IC50 (read off the curve) (Fc-HRS(2-60))	binding result [1]	Binder
< 0.001 nM	< 0.001 nM			AB13-288 (IgG1m(zf) kappa) (antibody, V domains shown, Human) VH: QVQLVESGGGLVKPGGSLRLSCAASGFTFSDYYMSWIRQAPGKGLEWVSYISDKSRYTKYTDKVRGRFTISRDNAKNSLYLQMNSLRAEDTAVYYCARYLYQVIAIADAWGQGTLVTVSS VL: DIQMTQSPSSVSASVGDRVTITCRASQGISSWLAWFQQKPGKAPKLLIFVASNLESGVPSRFSGSGSGTDFTLTISSLQPEDFATYYCQQAESFPYTFGQGTKLEIK
0.015 nM	0.145 nM			AB04-168 (antibody, IgG4, V domains shown, Human; IgG4-2 kappa) VH: QVQLVESGGGLVKPGGSLRLSCAASGFTFSDYYMTWIRQAPGKGLEWVSYISGSFRYTNYADKVKGRFTISRDNAKNSLYLQMNSLRDEDTAVYFCARYVYQVVAIGDLWGQGTLVTVSS VL: DIQMTQSPSSVSASVGDRVTITCRASQGISSWLAWYQQKPGRAPKLLIFAASSLQSGVPSRFSGSGSGTHFTLTISSLQPEDFATYYCQQAESFPYTFGQGTKLEIK
< 0.001 nM	0.023 nM			AB13-288 (IgG4-2 kappa) (antibody, V domains shown, Human) VH: QVQLVESGGGLVKPGGSLRLSCAASGFTFSDYYMSWIRQAPGKGLEWVSYISDKSRYTKYTDKVRGRFTISRDNAKNSLYLQMNSLRAEDTAVYYCARYLYQVIAIADAWGQGTLVTVSS VL: DIQMTQSPSSVSASVGDRVTITCRASQGISSWLAWFQQKPGKAPKLLIFVASNLESGVPSRFSGSGSGTDFTLTISSLQPEDFATYYCQQAESFPYTFGQGTKLEIK
0.21 nM	0.21 nM			AB13-433 (antibody, V domains shown, Human; IgG1m(zf) kappa) VH: QVQLVESGGGLVKPGGSLRLSCAASGFTFSDYYMSWIRQAPGKGLEWVSYISDSSTYTNYTDSVRGRFTISRDNAKNSLYLQMNSLRAEDTAVYYCARYLYQVIAVADSWGQGTLVTVSS VL: DIQMTQSPSSVSASVGDRVTITCRASQGISSWLAWFQQKPGKAPKLLIYVASNLESGVPSRFSGSGSGTDFTLTISSLQPEDFATYYCQQANSFPYTFGQGTKLEIK
0.3 nM	1.4 nM	~20 nM		KL31-356 (antibody, IgG4, V domains shown, Humanized; IgG4-2 kappa) VH: QVQLVQSGAEVKKPGASVKVSCKASGYTFTDYCIGWIRQAPGQGLEWMGDICPGDTYTNDNEKFKDRATMTADTSTSTAYMELSSLRSEDTAVYYCARGEEQLGLRNAMDYWGQGTLVTVSS VL: DIVMTQSPDSLAVSLGERATINCQSQSVSTSTYNYMHWYQQKPGQPPKLLIKYASNLESGVPDRFSGSGSGTDFTLTISSLQAEDVATYYCQHSWEIPWTFGGGTKVEIK
0.064 nM	0.37 nM			KL31-532 (antibody, V domains shown, Humanized; IgG1m(zf) kappa) VH: QVQLVQSGAEVKKPGASVKVSCKASGYTFTDYCIGWIRQAPGQGLEWMGDICPGDTYTNDNEKFKDRATMTADTSTSTAYMELSSLRSEDTAVYYCARGEEQLGLRNAMDYWGQGTLVTVSS VL: DIVMTQSPDSLAVSLGERATINCQSQSVSTSTYNYMHWYQQKPGQPPKLLIKYASNLESGVPDRFSGSGSGTDFTLTISSLQAEDVATYYCGHSYEIPWTFGGGTKVEIK
			no binding	VEGF-A121 (ligand, human, UniProt P15692-9 27-147, looked up) APMAEGGGQNHHEVVKFMDVYQRSYCHPIETLVDIFQEYPDEIEYIFKPSCVPLMRCGGCCNDEGLECVPTEESNITMQIMRIKPHQGQHIGEMSFLQHNKCECRPKKDRARQEKCDKPRR
